Assay [1] concerns the target IgE-Fc, the Fc portion of human IgE (Cε2-Cε4 domains, V224-K547 by Dorrington & Bennich numbering, carrying a C225A mutation) (human) (UniProt P01854). The experiment in a line: flow cytometry, Alexa488 IgE-Fc on RBL-SX38 cells; control at 10 ug/mL.
Assay [2] has the same target. Description: flow cytometry, Alexa488 IgE-Fc on RBL-SX38 cells; control at 3.1 ug/mL. On the technique in general: In flow cytometry, cells or beads pass a laser one at a time.
Assay [3] shares this target. Description: flow cytometry, Alexa488 IgE-Fc on RBL-SX38 cells; control at 31 ug/mL.
For assay [4] the target is unchanged. The experiment in a line: flow cytometry, Alexa488 IgE-Fc on RBL-SX38 cells; control at 100 ug/mL.
Assay [5] shares this target. Description: flow cytometry, Alexa488 IgE-Fc on RBL-SX38 cells; control at 1 ug/mL.

Sequence of IgE-Fc, the Fc portion of human IgE (Cε2-Cε4 domains, V224-K547 by Dorrington & Bennich numbering, carrying a C225A mutation) (human) (P01854 other isoform, or with tags, fused parts or gaps C225A C225A limits assumed): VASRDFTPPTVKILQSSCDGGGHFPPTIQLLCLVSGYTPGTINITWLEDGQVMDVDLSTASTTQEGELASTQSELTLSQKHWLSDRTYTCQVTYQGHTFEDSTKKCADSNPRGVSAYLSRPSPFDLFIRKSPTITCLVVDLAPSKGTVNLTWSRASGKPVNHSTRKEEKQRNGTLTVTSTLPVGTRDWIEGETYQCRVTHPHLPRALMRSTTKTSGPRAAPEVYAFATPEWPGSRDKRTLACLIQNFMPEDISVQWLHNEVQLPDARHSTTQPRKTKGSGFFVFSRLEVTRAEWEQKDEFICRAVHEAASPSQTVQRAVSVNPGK

Regarding Isotype control (antibody), the dissociation rate of IgE-Fc from FcεRI on cells came to 1.35e-05 s⁻¹ in assay [1]; 1.19e-05 s⁻¹ in assay [2]; 1.28e-05 s⁻¹ in assay [3]; 1.3e-05 s⁻¹ in assay [4]; 1.25e-05 s⁻¹ in assay [5].
